Laboratory results as given in patent publication US6214868A, “Method for preventing or treating coronary restenosis with catechin” (Sam-A Pharm. Co., Ltd., priority 2000, dated 2001).

What was measured:
Format in all cases: cell-based
[1] = test system: rat VSMCs; assay: Inhibition of VSMC growth, 3H-thymidine DNA incorporation, in the presence of PDGF-BB; details: in words; 50 ng/ml PDGF-BB, control data
Description: Each rat was suffocated with CO2, and its chest was disinfected and incised to remove the arteriae aorta. All operative apparatus and glass articles were autoclaved and all operations were conducted on a clean bench. The arteriae aorta was dipped in physiological salt solution(PSS) and its adipose tissues were removed. The resulting arteriae aorta was treated with 0.2% collagenase in an incubator maintained at 37° C. for 30 minutes. Its endothelium and adventitia were removed and the resulting arteriae aorta was ground up. A complete DMEM (DMEM containing 10% FBS, an antibiotic and glutamine) containing 0.2% collagenase was added thereto and the resulting mixture was kept at 37° C. for 4 hours while shaking with an orbital shaker.
The resulting mixture was centrifuged at 1,500×g for 5 minutes to remove the collagenase and the cell precipitate was suspended in an appropriate amount of complete DMEM. […]
The wells were washed twice with a serum-free medium, Hunger medium(Gibco), and fresh Hunger medium was added thereto. […] A 50 μl portion of the resulting reaction mixture was subjected to protein quantification. Further, a 100 μl portion of the resulting reaction mixture was added to 5 ml of a cocktail solution to measure the radioactivity, thereby determining the amount of ^3 H-thymidine incorporated into the cell. […]

[2] = test system: p44^mapk; assay: Phosphorylation of p44^mapk in rat VSMCs (western blotting); details: in words; western blot
Description: (§1) The resulting culture was incubated for 24 hours. 50 ng/ml of PDGF-BB was added thereto and kept for 5 minutes. […] The above procedure was also repeated without PDGF-BB treatment.
(§2) The VSMC was lysed and the VSMC lysate(corresponding amount to 70 μg proteins) was subjected to SDS-PAGE. The proteins separated on the gel was transferred to a nitrocellulose membrane and the membrane was saturated with Tris buffered saline(TBS) containing 3% milk protein. A primary antibody(Promega, dilution ratio: 1:5,000) for catalytically activated p44^mapk /p42^mapk whose threonine and tyrosine residues are phosphorylated, was added thereto and kept over night. The membrane was washed three times with TBS containing 0.05% Tween 20. The membrane was reacted with a horseradish peroxidase-conjugated anti-IgG secondary antibody and developed using Amersham ECL kit. Linearity of MAPK concentration-ECL signal correlation was examined using standard p42, a recombinant, activated MAPK(Upstate Biotechnology), and serially diluted artery tissue homogenate. Bands on the X-ray film were quantified using Molecular Dynamics personal laser densitometer.

[3] = test system: p42^mapk; assay: Phosphorylation of p42^mapk in rat VSMCs (western blotting); details: in words; western blot
Description: as §1, §2

B1: PDGF-BB: platelet derived growth factor(PDGF)-BB (protein, UniProt P01127 82-190, looked up)
Platelet-derived growth …: SLGSLTIAEPAMIAECKTRTEVFEISRRLIDRTNANFLVWPPCVEVQRCSGCCNNRNVQCRPTQVQLRPVQVRKIEIVRKKPIFKKATVTLEDHLACKCETVAAARPVT
modifications: BB homodimer
VSMC growth on PDGF-BB treatment [1]: greatly enhances the VSMC growth | phosphorylated p44^mapk /p42^mapk band density (p44) [2]: enhanced density as compared with the blank | phosphorylated p44^mapk /p42^mapk band density (p42) [3]: enhanced density as compared with the blank
